Assays:
[1] = biological target: CtpA_(F105R) mutant (Helicobacter pylori G27); assay: crystal structure; sitting-drop vapour diffusion; wild type: 100 mM bis-Tris-HCl pH 6.5, 100 mM magnesium chloride, 25% PEG 3350, 16 °C; F105R: Morpheus condition A8
[2] = biological target: Recombinant HP1076 protein (Helicobacter pylori); assay: MST; CtpA_(S300A) diluted from 165 μM to 5.04 nM, mixed 1:1 with 45 nM RED-NHS-labelled HP1076; Monolith NT.115, 70% excitation power, 40% MST power, 20 °C
[3] = biological target: CtpA_(S300A/K325A/Q329A) triple mutant (CtpATM) (Helicobacter pylori G27); assay: cryo-EM structure; 2 mg/ml protein on Quantifoil R1.2/1.3 grids, Titan Krios 300 kV
[4] = biological target: CtpAΔN46 (residues 47-454), wild-type H. pylori CtpA (Helicobacter pylori G27); assay: AUC; sedimentation velocity, absorbance, 28,000 rpm, 16 °C, c(s) model in SEDFIT
[5] = biological target: CtpAΔN46 (residues 47-454), wild-type H. pylori CtpA (Helicobacter pylori G27); assay: cryo-EM structure; 2 mg/ml protein on Quantifoil R1.2/1.3 grids, Titan Krios 300 kV
[6] = biological target: CtpAΔN46 (residues 47-454), wild-type H. pylori CtpA (Helicobacter pylori G27); assay: crystal structure; sitting-drop vapour diffusion; wild type: 100 mM bis-Tris-HCl pH 6.5, 100 mM magnesium chloride, 25% PEG 3350, 16 °C; F105R: Morpheus condition A8

CtpA_(F105R) mutant (enzyme)
stoichiometry N [1]: 6

CtpA_(S300A) (inactive mutant of CtpAΔN46) (enzyme)
Kd [2]: 15.4 µM

CtpA_(S300A/K325A/Q329A) triple mutant (CtpATM) (enzyme)
stoichiometry N [3]: 6

CtpAΔN46 (residues 47-454), wild-type H. pylori CtpA (enzyme)
stoichiometry N [4]: 6
stoichiometry N [5]: 6
stoichiometry N [6]: 6

— article PMC12749690
